According to patent US10907134B2, “Mutated genes for the catalytic protein of oplophorus luciferase and use thereof” (JNC CORPORATION, priority 2013, dated 2021):

Legend:
[1] = Luminescence activity of KAZ mutants (pCold II, E. coli) in supernatant and precipitate of crude enzyme solution; type: biochemical; conditions: Table 3, pCold II, E. coli BL21, 0.5 μg coelenterazine, 60 seconds; for Relative Luminescence Activity (Imax) Precipitate: 5 μL precipitate; for Relative Luminescence Activity (Imax) Supernatant: 5 μL supernatant
Protocol: In order to express the KAZ mutants in E. coli, the recombinant plasmid prepared in EXAMPLE 3 was used. The E. coli BL21 strain (Novagen, Madison, Wis.) was used as a host cell. The BL21 strain carrying the recombinant plasmid was incubated in 5 mL of Luria-Bertani medium (hereinafter designated as LB medium) containing ampicillin (50 μg/mL) at 37° C. for 18 hours. This seed culture, 0.1 mL, was inoculated to 10 mL of LB medium and incubated for 3 hours, followed by cooling in an ice-water bath for 1 hour. IPTG was added to the culture medium at a final concentration of 1 mM, followed by incubation at 15° C. for further 20 hours. After completion of the incubation, 1 mL of the cultured medium was harvested by centrifugation at 10,000 rpm for 2 minutes. The thus collected E. coli cells were suspended in 0.5 mL of 30 mM Tris-HCl (pH 7.6)-10 mM EDTA (manufactured by Wako Pure Chemical Industries, Ltd.) (hereinafter designated as TE). The E. coli cells were disrupted by sonication for 3 seconds using a Branson Model 250 Sonifier (Danbury, Conn.) to give a crude enzyme solution. After 0.5 mL of the crude enzyme solution was further centrifuged at 10,000 rpm for 2 minutes to separate the supernatant from the precipitate, the precipitate was suspended in 0.5 mL of TE. Then 20 μL each of the supernatant and precipitate were analyzed by SDS-PAGE to confirm the presence or absence of soluble and insoluble proteins. The results are shown in FIG. 1, wherein M and 1 to 17 denote: M: molecular weight size markers; 1: KAZ; 2 KAZ-A4E; 3: KAZ-Q11R; 4: KAZ-Q18L; 5: KAZ-L27V; 6: KAZ-A33N; 7: KAZ-K43R; 8: KAZ-V44I; 9: KAZ-A54I; 10: KAZ-F68D; 11: KAZ-L72Q; 12: KAZ-M75K; 13: KAZ-I90V; 14: KAZ-P115E; 15: KAZ-Q124K; 16: KAZ-Y138I; 17: KAZ-N166R and 18: dnKAZ.
A luminescence reaction was started by the addition of 5 μL each of the supernatant and precipitate obtained in EXAMPLE 4 to 100 μL of TE containing 0.5 μg of coelenterazine (manufactured by JNC Corp.). The luminescence activity was measured for 60 seconds using a luminometer (manufactured by Atto Corp.: AB2200) and expressed in terms of relative luminescence activity (Imax).
To express the KAZ mutants with two amino acid substitutions and three amino acid substitutions in E. coli using a pCold II vector, the recombinant plasmid constructed in EXAMPLE 13 and pCold-V44I-KAZ, pCold-A54I-KAZ, pCold-Y138I-KAZ prepared in EXAMPLE 3 were used. The supernatant and precipitate of each crude enzyme solution were prepared in the same manner as EXAMPLE 4, using the E. coli BL21 starin (Novagen, Madison, Wis.) as a host cell. The supernatant and precipitate, 20 μL each, were subjected to SDS-PAGE analysis to confirm the presence or absence of soluble proteins and insoluble proteins. In FIG. 3, M and 1 to 9 are as follows. M: molecular weight markers; 1: dnKAZ; 2: KAZ; 3: KAZ-V44I-A54I; 4: KAZ-V44I-Y138I; 5: KAZ-A54I-Y138I; 6: KAZ-V44I-A54I-Y138I; 7: KAZ-V44I; 8: KAZ-A54I; and 9: KAZ-Y138I.
The luminescence activities of 5 μL each of the supernatant and precipitate obtained in EXAMPLE 14 were determined in the same manner as EXAMPLE 5. The luminescence activity was assayed with a luminometer (manufactured by Atto Inc.: AB2200) for 60 seconds, and the maximum intensity of luminescence (Imax) was shown as relative luminescence activity.

[2] = Luminescence activity of ZZ-fused KAZ mutants in crude enzyme solutions; type: biochemical; conditions: Table 4; ZZ-fused (pCold-ZZ-P-); 1 μL crude enzyme solution, 1 mM DTT; 1 μg coelenterazine
Protocol: To express the ZZ-fused KAZ mutants in E. coli, the recombinant plasmid prepared in EXAMPLE 6 was used. Crude enzyme solutions were prepared in the same manner as EXAMPLE 4 using the E. coli BL21 strain (Novagen, Madison, Wis.) as a host cell. The resultant crude enzyme solution, 5 μL, was subjected to SDS-PAGE analysis to confirm expression of the proteins (FIG. 2). In FIG. 2, M and 1 to 18 are the same as described in FIG. 1.
DTT was added to the crude enzyme solution obtained in EXAMPLE 7 at a final concentration of 1 mM and the mixture was allowed to stand in an ice water for more than 5 hours. A luminescence reaction was started by adding 1 μL of the crude enzyme solution to 100 μL of TE containing 1 μg of coelenterazine (manufactured by JNC Corp.). The luminescence activity was determined using a luminometer (manufactured by Atto Inc.: AB2200) for 60 seconds, and the maximum intensity of luminescence (Imax) was shown as relative luminescence activity.
To express the ZZ-fused KAZ mutants in E. coli, the recombinant plasmid constructed in EXAMPLE 16 and pCold-ZZ-P-V44I-KAZ, pCold-ZZ-P-A54I-KAZ, pCold-ZZ-P-Y138I-KAZ prepared in EXAMPLE 6 were used. Crude enzyme solutions were prepared in the same manner as EXAMPLE 7, using the E. coli BL21 strain (Novagen, Madison, Wis.) as a host cell. DTT was added to the crude enzyme solutions at a final concentration of 1 mM. The mixtures were allowed to stand over 5 hours on ice, and luminescence activities were then assayed. The luminescence activities were determined by the method described in EXAMPLE 8. Also, 5 μL of the resultant crude enzyme solutions were subjected to SDS-PAGE analysis to confirm protein expression (FIG. 4). In FIG. 4, M and 1 to 9 are as follows. M: molecular weight size markers; 1: ZZ-P-KAZ; 2: ZZ-P-KAZ-V44I; 3: ZZ-P-KAZ-A54I; 4: ZZ-P-KAZ-Y138I; 5: ZZ-P-KAZ-V44I-A54I; 6: ZZ-P-KAZ-V44I-Y138I; 7: ZZ-P-KAZ-A54I-Y138I; 8: ZZ-P-KAZ-V44I-A54I-Y138I; and 9: ZZ-P-dnKAZ.

CHO-K1 cells = experiment: Luminescence activity of KAZ mutants expressed in animal culture cells with signal peptide of Gaussia luciferase for secretion; type: cell-based, Chinese hamster; conditions: Table 5, pcDNA3-GLsp- vectors, CHO-K1, 48 hours, 0.5 μg coelenterazine; for Relative Luminescence Activity (Imax) (%) Cell Extracts: 5 μL cell extracts; for Relative Luminescence Activity (Imax) (%) Culture Medium: 5 μL culture medium
Protocol: Chinese hamster ovary cell line CHO-K1 was cultured in Ham's F-12 medium (manufactured by Wako Pure Chemical Industries, Ltd.) supplemented with 10% (v/v) fetal bovine serum (manufactured by Biowest Inc.). The CHO-K1 cells were plated in a 6-well plate in 1×10^5 cells/well/2 mL medium (n=2) and cultured in an incubator at 37° C. in 5% (v/v) CO2. After 24 hours, the purified recombinant plasmid was transfected to CHO-K1 cells using a FuGene HD transfection kit (manufactured by Promega Corp.), which was provided for subsequent experiment. Specifically, 1 μg of the recombinant plasmid pGL4.13 [Luc2/sv40], 0.1 μg of the internal standard vector and 3 μL of FuGene HD were added to 100 μL of the medium, which was allowed to stand at room temperature for 15 minutes. Subsequently, 100 μL of the DNA-FuGene complex was added to the cells in the 6 wells. After incubation for 48 hours, the culture medium was collected. On the other hand, the KAZ mutants expressed in the cells were washed 3 times with 3 mL of 1×PBS, then suspended in 1 mL of 1×PBS and disrupted on ice by ultrasonication, which was used as enzyme solutions of the cell-extracts of KAZ mutants.
A luminescence reaction was started by adding 5 μL of the culture media and cell extracts obtained in EXAMPLE 10 to 100 μL of 30 mM Tris-HCl (pH 7.6)-10 mM EDTA (manufactured by Wako Pure Chemical Industries, Ltd.) containing 0.5 μg of coelenterazine (manufactured by INC Corp.). The luminescence activity was determined using a luminometer (manufactured by Atto Inc.: AB2200) for 60 seconds, and the maximum intensity of luminescence (Imax) was defined as a percentage.
Culture media of the KAZ mutants with two amino acid substitutions and KAZ mutants with three amino acid substitutions and the enzyme solutions of the cell-extracts of KAZ mutants were prepared in the same manner as EXAMPLE 10.
In the resultant enzyme solutions and the enzyme solutions of the cell-extracts of KAZ mutants, luminescence activities were determined in the same manner as EXAMPLE 11.

Relative Luminescence Activity (Imax) [2] | Molecule | Relative Luminescence Activity (Imax) Precipitate [1] | Relative Luminescence Activity (Imax) Supernatant [1] | Relative Luminescence Activity (Imax) (%) Cell Extracts (CHO-K1 cells) [%] | Relative Luminescence Activity (Imax) (%) Culture Medium (CHO-K1 cells)
2.5 | KAZ-L72Q: KAZ with single amino acid substitution L72Q (protein) FTLADFVGDWQQTAGYNQDQVLEQGGLSSLFQALGVSVTPIQKVVLSGENGLKADIHVIIPYEGLSGFQMGQIEMIFKVVYPVDDHHFKIILHYGTLVIDGVTPNMIDYFGRPYPGIAVFDGKQITVTGTLWNGNKIYDERLINPDGSLLFRVTINGVTGWRLCENILA | 0.6 | 7.2 | 0.4 | less than 0.01%
3.6 | KAZ-N166R: KAZ with single amino acid substitution N166R (protein) FTLADFVGDWQQTAGYNQDQVLEQGGLSSLFQALGVSVTPIQKVVLSGENGLKADIHVIIPYEGLSGFQMGLIEMIFKVVYPVDDHHFKIILHYGTLVIDGVTPNMIDYFGRPYPGIAVFDGKQITVTGTLWNGNKIYDERLINPDGSLLFRVTINGVTGWRLCERILA | 0.8 | 4.7 | 0.2 | less than 0.01%
4.5 | KAZ-P115E: KAZ with single amino acid substitution P115E (protein) FTLADFVGDWQQTAGYNQDQVLEQGGLSSLFQALGVSVTPIQKVVLSGENGLKADIHVIIPYEGLSGFQMGLIEMIFKVVYPVDDHHFKIILHYGTLVIDGVTPNMIDYFGRPYEGIAVFDGKQITVTGTLWNGNKIYDERLINPDGSLLFRVTINGVTGWRLCENILA | 1.1 | 16 | 0.3 | less than 0.01%
3.7 | KAZ-Q124K: KAZ with single amino acid substitution Q124K (protein) FTLADFVGDWQQTAGYNQDQVLEQGGLSSLFQALGVSVTPIQKVVLSGENGLKADIHVIIPYEGLSGFQMGLIEMIFKVVYPVDDHHFKIILHYGTLVIDGVTPNMIDYFGRPYPGIAVFDGKKITVTGTLWNGNKIYDERLINPDGSLLFRVTINGVTGWRLCENILA | 0.8 | 7.4 | 0.3 | less than 0.01%
1.3 | KAZ-M75K: KAZ with single amino acid substitution M75K (protein) FTLADFVGDWQQTAGYNQDQVLEQGGLSSLFQALGVSVTPIQKVVLSGENGLKADIHVIIPYEGLSGFQMGLIEKIFKVVYPVDDHHFKIILHYGTLVIDGVTPNMIDYFGRPYPGIAVFDGKQITVTGTLWNGNKIYDERLINPDGSLLFRVTINGVTGWRLCENILA | 0.4 | 4.6 | 0.2 | less than 0.01%
1.8 | KAZ-I90V: KAZ with single amino acid substitution I90V (protein) FTLADFVGDWQQTAGYNQDQVLEQGGLSSLFQALGVSVTPIQKVVLSGENGLKADIHVIIPYEGLSGFQMGLIEMIFKVVYPVDDHHFKVILHYGTLVIDGVTPNMIDYFGRPYPGIAVFDGKQITVTGTLWNGNKIYDERLINPDGSLLFRVTINGVTGWRLCENILA | 0.4 | 2.1 | 0.3 | less than 0.01%
